Experimental findings from publication PMC12326332 are described below.

Targets include GST-RNF38^RING-R454F (UniProt Q9H0F5); GST-RNF38^RING-R454S (UniProt Q9H0F5); GST-RNF38^RING-R454M (UniProt Q9H0F5); GST-RNF38^RING-R454E (UniProt Q9H0F5); GST-RNF38^RING-R454Q (UniProt Q9H0F5); GST-RNF38^RING-R454K (UniProt Q9H0F5); GST-RNF38^RING-R454H (UniProt Q9H0F5); GST-RNF38^RING-R454A (UniProt Q9H0F5); GST-RNF38^RING-R454G (UniProt Q9H0F5); GST-RNF38^RING-WT (UniProt Q9H0F5); GST-RNF38^RING-R454Y (UniProt Q9H0F5); GST-RNF38^RING-R454D (UniProt Q9H0F5); GST-RNF38^RING-R454N (UniProt Q9H0F5); GST-RNF38^RING-R454C (UniProt Q9H0F5); GST-RNF38^RING-R454W (UniProt Q9H0F5); GST-RNF38^RING-R454V (UniProt Q9H0F5); GST-RNF38^RING-R454L (UniProt Q9H0F5); GST-RNF38^RING-R454P (UniProt Q9H0F5); GST-RNF38^RING-R454I (UniProt Q9H0F5); GST-RNF38^RING-R454T (UniProt Q9H0F5).

Holding throughout (assay): SPR; Biacore T200, CM-5 chip with coupled anti-GST nanobody; GST-tagged RNF38 LP variants captured, UBE2D2^S22R or UBE2D2^S22R,C85K–Ub as analyte; 25°C; 25 mM Tris–HCl pH 7.6, 150 mM NaCl, 1 mM DTT, 0.005% Tween-20; one-site binding model; two technical replicates
A general note: Surface plasmon resonance follows binding to a sensor surface in real time, without labels.

pKd: −log10 of the molar value.

The term pKd denotes the Kd on a negative log10 scale, so that one unit is a factor of ten. For the substance “UBE2D2^S22R (from UniProt P62837 1-147) (enzyme)”, the pKd in the test with GST-RNF38^RING-R454F was 3.76; with GST-RNF38^RING-R454S it was 3.82; in the test with GST-RNF38^RING-R454M, 3.86; in the test with GST-RNF38^RING-R454E, 3.12; in the test with GST-RNF38^RING-R454Q it was 4.00; with GST-RNF38^RING-R454K, 3.88. The pKd was 3.70 in the test with GST-RNF38^RING-R454H; 3.78 with GST-RNF38^RING-R454A; 3.41 with GST-RNF38^RING-R454G; 3.98 in the test with GST-RNF38^RING-WT; 3.86 in the test with GST-RNF38^RING-R454Y; 3.57 with GST-RNF38^RING-R454D. Also, the pKd is 3.21 with GST-RNF38^RING-R454N; 3.68 in the test with GST-RNF38^RING-R454C; 4.20 in the test with GST-RNF38^RING-R454W; 3.76 with GST-RNF38^RING-R454V; 3.78 with GST-RNF38^RING-R454L; 3.61 with GST-RNF38^RING-R454P. The negative-log Kd (pKd) in the test with GST-RNF38^RING-R454I was 3.95; in the test with GST-RNF38^RING-R454T, 3.80.
As to “UBE2D2^S22R,C85K–Ub (from UniProt P62837 2-147; P0CG48 1-76) (complex)”, the pKd with GST-RNF38^RING-R454F was 4.34; with GST-RNF38^RING-R454S, 4.23; with GST-RNF38^RING-R454M, 4.51; with GST-RNF38^RING-R454E it was 3.95; with GST-RNF38^RING-R454Q it was 4.53; with GST-RNF38^RING-R454K it was 4.52. Moreover, the negative logarithm of the Kd (pKd) was 4.25 in the test with GST-RNF38^RING-R454H; 4.22 with GST-RNF38^RING-R454A; 4.04 with GST-RNF38^RING-R454G; 5.60 with GST-RNF38^RING-WT; 4.62 in the test with GST-RNF38^RING-R454Y; 4.16 with GST-RNF38^RING-R454D. For the same substance, the pKd was 3.97 in the test with GST-RNF38^RING-R454N; 4.25 with GST-RNF38^RING-R454C; 4.61 in the test with GST-RNF38^RING-R454W; 4.27 with GST-RNF38^RING-R454V; 4.33 with GST-RNF38^RING-R454L; 4.08 with GST-RNF38^RING-R454P. Further, the negative logarithm of the Kd (pKd) in the test with GST-RNF38^RING-R454I is 4.38; in the test with GST-RNF38^RING-R454T, 4.20.
